Data from patent US20080254508.

T1: holo-ZmaD
T1 chain: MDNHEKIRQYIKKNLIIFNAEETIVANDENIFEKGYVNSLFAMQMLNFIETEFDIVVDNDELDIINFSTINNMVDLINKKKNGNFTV

B1: ZmaN (protein)
chain: MSKEIKCVVWDLDCTIWDGVLLESGTVTLKPGIYEIICELDRRGILQSVASKNNYEDAIAKLREFGIEEYFLYPEIHWNSKSSSIEKIRKNLNIGIDTFAFIDDQPFELEEVQSVHNDILCIHVNEYKSLLDLPRLQPKRITEDSGRRRLMYLENLKRTKDEEEYEGPKEEFLASLGMNFVISEAREEDLQRAEELTVRTNQLNSTGITYDYDELNYYRNHPDYLLLVCELSDKYGSYGKIGLTLVKRTEEADCLKLLLMSCRVMSRGVGTILLTYLMERTKQAGKRFLAEFRQTDRNRMMFVTYRLAGFKETSNENGILILEHNLENINPYPHYINIQFPETPTDVDRGEVEICNKQL

Tests used:
[1] = system: holo-ZmaH
[2] = system: holo-ZmaD
[3] = biological target: holo-ZmaH; remark: listed apart in the source
[4] = biological target: T1, holo-ZmaD

| Molecule | formation of seryl-ZmaH (HPLC elution shift and MS mass of holo-ZmaH) [1] | aminoacylation of holo-ZmaD (holo-ZmaD replaced holo-ZmaH) [2] | formation of glyceryl-ACP (control reaction in which holo-ZmaH replaced holo-ZmaD) [3] | formation of glyceryl-ZmaD (HPLC elution shift and MALDI-TOF MS mass shift of holo-ZmaD) [4] | rate of holo-ZmaD modification, with 3-PGPK [4] | rate of holo-ZmaD modification, without 3-PGPK [4] |
| --- | --- | --- | --- | --- | --- | --- |
| ZmaJ | Incubation of holo-ZmaH with ZmaJ, L-Ser, and ATP resulted in a change in the holo-ZmaH elution time from the HPLC, and the mass of the purified product was consistent with the formation of seryl-ZmaH | ZmaJ was not able to aminoacylate holo-ZmaD | – | – | – | – |
| B1 | – | – | holo-ZmaH was not a substrate for ZmaN-catalyzed formation of glyceryl-ACP | The mass of holo-ZmaD had shifted to be consistent with the formation of glyceryl-ZmaD | 1.44 nmol min-1 with 3-PGPK | 0.08 nmol min-1 without 3-PGPK |
